Measurements as given in patent US20070178098A1 (Merck KGaA, published 2007).
Residue numbers refer to the chain shown, from its start.

T1: Fc-IL6 (human IL-6; mouse Fc)
T1 construct: also called Mature Fc-IL6
T1 chain: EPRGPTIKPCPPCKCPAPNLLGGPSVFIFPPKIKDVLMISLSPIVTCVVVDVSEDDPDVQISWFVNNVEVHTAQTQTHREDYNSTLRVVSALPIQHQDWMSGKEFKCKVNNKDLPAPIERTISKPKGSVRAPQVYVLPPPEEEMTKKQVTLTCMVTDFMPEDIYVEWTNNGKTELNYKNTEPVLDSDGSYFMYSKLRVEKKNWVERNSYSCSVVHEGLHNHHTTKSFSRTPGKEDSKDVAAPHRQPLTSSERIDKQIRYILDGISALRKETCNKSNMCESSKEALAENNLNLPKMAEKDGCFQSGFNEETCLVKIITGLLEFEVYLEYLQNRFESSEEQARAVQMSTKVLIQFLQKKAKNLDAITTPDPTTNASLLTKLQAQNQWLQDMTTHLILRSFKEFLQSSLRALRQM

T2: human IL-6Ralpha (human, UniProt P08887 20-358, limits assumed)
T2 construct: also called IL-6Ralpha alone
T2 sequence (looked up): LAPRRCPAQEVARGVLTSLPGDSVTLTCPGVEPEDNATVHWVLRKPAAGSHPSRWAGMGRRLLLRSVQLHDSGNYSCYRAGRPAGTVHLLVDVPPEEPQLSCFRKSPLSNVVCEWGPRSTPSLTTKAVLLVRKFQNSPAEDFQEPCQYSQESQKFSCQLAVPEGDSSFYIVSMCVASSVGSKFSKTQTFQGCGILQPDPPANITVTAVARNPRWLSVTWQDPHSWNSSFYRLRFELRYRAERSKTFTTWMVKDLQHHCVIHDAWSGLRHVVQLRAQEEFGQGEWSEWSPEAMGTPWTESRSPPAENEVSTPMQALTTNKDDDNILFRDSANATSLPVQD

B1: Mab#195 (antibody, V domains shown)
VH: EVKLEESGGGLVQPGGSMKLSCVASGFTFSNYWMNWVRQSPEKGLEWVAEIRLKSNNYATHYAESVKGRFTISRDDSKSSVYLQMNNLRAEDTGIYYCTREDYYGYPDYWGQGTTLTVSS
VL: not shown
notes: Mouse IgG monoclonal from a hybridoma; V regions were amplified with primers specific for mouse IgG gamma1 VH and Vk; also called antibody 195
B2: Mab#476 (antibody, V domains shown)
VH: EVKLEESGGGLVQPGGSMKLSCAASGFTFSDAWMDWVRQSPEKGLEWVAEIRSKANNHATYYAESVKGRFTISRDDSKSSVYLQMNSLRAEDTGIYYCTTPTLYGAMDYWGQGTSVTVSA
VL: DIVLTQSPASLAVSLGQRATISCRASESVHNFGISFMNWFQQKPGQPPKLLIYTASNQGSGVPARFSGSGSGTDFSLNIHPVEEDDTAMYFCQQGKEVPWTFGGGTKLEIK
notes: Mouse IgG monoclonal from a hybridoma; V regions were amplified with primers specific for mouse IgG gamma1 VH and Vk; also called antibody 476
B3: Mab#309 (antibody, V domains shown)
VH: EVKLEESGGGLVQPGGSMKLSCVASGFTFSNYWMNWVRQSPEKGLEWVAEIRLKSNKGATHYAESVKGRFTISRDDSKSSVYLQMNNLRAEDTGIYYCASLLYDGYLHWGQGTLVTVSA
VL: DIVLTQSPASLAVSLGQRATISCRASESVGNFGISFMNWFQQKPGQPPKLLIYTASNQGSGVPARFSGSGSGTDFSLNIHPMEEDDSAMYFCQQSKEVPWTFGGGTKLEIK
notes: Mouse IgG monoclonal from a hybridoma; V regions were amplified with primers specific for mouse IgG gamma1 VH and Vk; also called antibody 309
B4: Mab#471 (antibody, V domains shown)
VH: B3 VH with L4F, T28S, K54T, G58Q, T60I, H61Y, L102F
VL: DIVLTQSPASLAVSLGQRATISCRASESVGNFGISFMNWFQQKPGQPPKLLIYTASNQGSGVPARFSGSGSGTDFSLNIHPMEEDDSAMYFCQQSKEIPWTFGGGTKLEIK
notes: Mouse IgG monoclonal from a hybridoma; V regions were amplified with primers specific for mouse IgG gamma1 VH and Vk

Molecular target: T1, Fc-IL6
Experiment: binding to immobilized Fc-IL6 (screen of paragraph 73)

binding result	Binder
binds	B1
binds	B2
binds	B3
binds	B4

Molecular target: T3, Fc-IL6Ralpha-IL6 (human IL-6Ralpha and IL-6; mouse Fc)
Experiment: cell-based or functional assay

haptoglobin level in mice given muFc-IL6Ralpha-IL6, relative to the positive control group at 24 hours [%]	Binder
~30	B4

Molecular target: T4, human IL-6 (human, UniProt P05231 30-212)
T4 construct: The Biacore text says only 'IL-6 protein'; also called interleukin-6; IL-6 protein
Experiment: Biacore, antibody immobilized on chip, IL-6 passed over
Procedure: The antibodies were immobilized on a chip; IL-6 protein was passed over the chip, and on-rates and off-rates were measured.

Kd [nM]	koff [s⁻¹]	kon [M⁻¹ s⁻¹]	Binder
2	0.0048	2.4e+06	B1
0.047 to 0.106	0.00012 to 0.00026	2.5e+06 to 2.6e+06	B2
0.135	0.00011	800000	B3
0.0075	1.4e-05	1.8e+06	B4

Molecular target: T3, Fc-IL6Ralpha-IL6
Experiment: plate binding assay read as OD450, antibody titrated on Fc-IL6Ralpha-IL6

EC50 (read off the curve) [ng/mL]	Binder
~4	B1
~6	B2
~3	B3
~3	B4

Molecular target: T3, Fc-IL6Ralpha-IL6
Experiment: competition assay: antibody titrated, inhibition of the binding of Fc-IL6Ralpha-IL6 to gp130-Fc; half of the antibody's own maximal inhibition
Procedure: To further characterize the antibodies that recognize IL-6, the following competition tests were performed. First, the ability of the monoclonal antibodies to inhibit the interaction between Fc-IL6Ralpha-IL6 and gp130-Fc was tested. The inhibition assays were performed based on the methods described by Scheller et al. J. Immuno. Methods, 291:93-100 (2004), the teachings of which are hereby incorporated by reference. […] Second, inhibition of the interaction between Fc-IL6 and Fc-IL6Ralpha by the antibodies was tested.

IC50 (read off the curve) [µg/mL]	Binder
~0.1	B1
~0.2	B2
~0.2	B3
~0.2	B4

Molecular target: T2, human IL-6Ralpha
Experiment: plate binding assay read as OD450, antibody titrated on IL6Ralpha alone

binding result	Binder
no binding (tested: 1 ug/ml)	B1
no binding (tested: 1 ug/ml)	B2
no binding (tested: 1 ug/ml)	B3
no binding (tested: 1 ug/ml)	B4

Molecular target: T4, human IL-6
Experiment: plate binding assay read as OD450, antibody titrated on IL6 (form of the coated IL-6 not given for this figure)

EC50 (read off the curve) [ng/mL]	Binder
~4	B1
~5	B2
~3	B3
~5	B4
